# Assay results published in IntAct's records for PubMed 22246185.
# B1: Apoptotic protease-activating factor 1 (Homo sapiens), O14727 (parent)
# chain: MDAKARNCLLQHREALEKDIKTSYIMDHMISDGFLTISEEEKVRNEPTQQQRAAMLIKMILKKDNDSYVSFYNALLHEGYKDLAALLHDGIPVVSSSSGKDSVSGITSYVRTVLCEGGVPQRPVVFVTRKKLVNAIQQKLSKLKGEPGWVTIHGMAGCGKSVLAAEAVRDHSLLEGCFPGGVHWVSVGKQDKSGLLMKLQNLCTRLDQDESFSQRLPLNIEEAKDRLRILMLRKHPRSLLILDDVWDSWVLKAFDSQCQILLTTRDKSVTDSVMGPKYVVPVESSLGKEKGLEILSLFVNMKKADLPEQAHSIIKECKGSPLVVSLIGALLRDFPNRWEYYLKQLQNKQFKRIRKSSSYDYEALDEAMSISVEMLREDIKDYYTDLSILQKDVKVPTKVLCILWDMETEEVEDILQEFVNKSLLFCDRNGKSFRYYLHDLQVDFLTEKNCSQLQDLHKKIITQFQRYHQPHTLSPDQEDCMYWYNFLAYHMASAKMHKELCALMFSLDWIKAKTELVGPAHLIHEFVEYRHILDEKDCAVSENFQEFLSLNGHLLGRQPFPNIVQLGLCEPETSEVYQQAKLQAKQEVDNGMLYLEWINKKNITNLSRLVVRPHTDAVYHACFSEDGQRIASCGADKTLQVFKAETGEKLLEIKAHEDEVLCCAFSTDDRFIATCSVDKKVKIWNSMTGELVHTYDEHSEQVNCCHFTNSSHHLLLATGSSDCFLKLWDLNQKECRNTMFGHTNSVNHCRFSPDDKLLASCSADGTLKLWDATSANERKSINVKQFFLNLEDPQEDMEVIVKCCSWSADGARIMVAAKNKIFLFDIHTSGLLGEIHTGHHSTIQYCDFSPQNHLAVVALSQYCVELWNTDSRSKVADCRGHLSWVHGVMFSPDGSSFLTSSDDQTIRLWETKKVCKNSAVMLKQEVDVVFQENEVMVLAVDHIRRLQLINGRTGQIDYLTEAQVSCCCLSPHLQYIAFGDENGAIEILELVNNRIFQSRFQHKKTVWHIQFTADEKTLISSSDDAEIQVWNWQLDKCIFLRGHQETVKDFRLLKNSRLLSWSFDGTVKVWNIITGNKEKDFVCHQGTVLSCDISHDATKFSSTSADKTAKIWSFDLLLPLHELRGHNGCVRCSAFSVDSTLLATGDDNGEIRIWNVSNGELLHLCAPLSEEGAATHGGWVTDLCFSPDGKMLISAGGYIKWWNVVTGESSQTFYTNGTNLKKIHVSPDFKTYVTVDNLGILYILQTLE
# Variants of: B1
# Conditions: with 1433e_human YWHAE
row,effect of a mutation on the interaction,Variant
1,decreasing interaction,S268A

# Variants of: B1
# Conditions: with 1433e_human YWHAE
# Remark: another data set of the same source
row,effect of a mutation on the interaction,Variant
1,decreasing interaction,S357A
